Experimental data from the DeepSol protein solubility set.

Experiment: soluble on expression in E. coli; label from the status in PepcDB or PDB records

Row | Sequence | soluble on expression in E. coli
1 | GPGSMRSAVNLGGAPRVPSQRLPAFEGVSPRIVARQVPAHRGEYVSLVLRPTSLNAQRNSLVASCVVTDESVEVMGLPADAEVAQVNEFVCYINPSSGELEYYQHGTYNDEYDVDVYRKLLELCPKFPALF | not soluble
2 | MRLISKPVLCNYYVTYRCNATCGFCDIWEKPSPYVTPEAVEQNMRDLKKLGVKVIDFTGGEPLLHREMDTLLRIAKKYGMITTLTTNALLYPKWAERLKGLIDMLHFSLDSPDKAEHDTLRGVACFDFVLESIEKAKALGERPDIIFTVFNHNIHLIKRMYEEICLPNNLILILNPSFEYNQVEVGTGLQKKELDILSYWAKQKNIYINEAFIQLRLDGGNHTADPVCKAASSTLVISPENKLVLPCYHLGTDSFQIENNLFDLYHSKEVRAIIAQEGKLDACEGCTINCYMQPSFAVEINKYWFKAMPSTLKYSREKGTWKQLFR | not soluble
3 | ELVMTQSPKFMSTSVGDRVSVTCKASQNVGTHVAWYQQKPGQSPKTLIYSASYRYSGVPDRFTGSGSGTDFTLTIRDVQSEDAAEYFCQQYNLFPVTFGGGTKLEIKRTVAAPSVFIFPPSDEQLKSGTASVVCLLNNFYPREAAVAWKVDNALQSGNSQESVTEQDSADSTYSLSSTLTLSKADYEKHKVYACEVTHQGLSSPVTKSFNRGE | soluble
4 | MDVKLLAHTQLSEEFVNYLSVVFGIGDEGFDPTHGQVVALSAIRTCYSPNKPSRIVSLEGEKYFKGKATDGKGGKEVDRLIRHIVGSGHASTLEHLTYTFAVEGVSRALLAQLTRHRVGFSYSVQSQRYVRMGSNDKIGGFDYVVPETVKAKGEQVVNAYNEMMYKLQSGYDLLRTLGIPAEDARSVLPNAAATNLVLTVNLRGLLDFYNKRRKGKGAQAEIAELAEQLRQEVVKVEKWVDEFFWKWKVTEV | not soluble
5 | MIHVILLAAGYSSRFGSNKLLHIVDGTPMYRHALETAEQFRQRYCCEPVRLIFVTAYDDIGKQLREKDGFCLFGAAKAGNTAGRDLVVMNPNSGLGISHSIALGVKAAGADRFQEDDSLMFMVCDQPWLTPGDLLNLAACFKRSGKSIGCMAYGEQTGNPVLFSAVYREELLGLRGDTGGKAIVRRHPKEVCLCPVSNPRALEDMDELQ | not soluble
6 | FIKLITSAKKRVWIQTPYLVPDDSVLAALKVAAASGVDVKIMIPDKPDHPFIYRATQYYGRLLMKENIEILIYNGGFLHAKTMIMDDEVCTVGSANQDIRSYKLNFEANAVLYDKKIIDQLEAIFLEDRKKCTTMTPEVVRDM | not soluble
7 | MQALKTKSNIGEMFNIQEKENGEIAISGRELHQALEVSTRYDKWFERMTEYGFENGIDFISQVEKVHGQKRARTYEQVNHILTLDTAKEIAMIQRSEPGKRARQYFIQVEKAWNSPEMIMQRALKIANNTINQLETKIERDKPKIVFADAVATTKTSILVGELAKIIKQNGINIGQRRLFEWLRQNGFLIKRKGVDYNMPTQYSMERELFEIKETSITHSDGHTSISKTPKVTGKGQQYFVNKFLGEKQTS | not soluble
8 | MSQNHVIELANTLKQRPIVCDYTGGRFRLTNEGLTYIGIDRDGTPLPPRWICAPLHIVAKTRDAQSGEWGRLLEWQDDDGITHQWAMPLALLQGDASDVRRELARLGLSISPHRTARDLLASYLQVFPVDARARCVDKLGWHGDVFVTASQCIGQSTEKIVFQNTNAIEPAMSIKGSVDKWRDSIGRLASGNSRLVFAISVALAPVLAKIVGEDSGGFHFRGASSSGKSTALSLAASVWGNPQSYCRLWRSTTNGLEGLAALHNDGLLILDELSQMDPREAGEAAYLLANGQGKTRASRTGTVRQSSRWSLFFLSAGEESLTALMAKSGQRINAGQEIRLADIEADAGCQMGIFETIHDQLSPASMALSLKKYSSGYHGAIGRAWLNQVVANRQTISRFITDTIQSFVDIVIQPDATGQIIRVARRFALVAAAGELASQFGLTGWKKGESFHAAKTCFIAWQDAFGVDGHREDRAIMAQVRAFFESHGASRFDNVNSPNNDKILNRAGFYHTDGEGFRIYMVLTETYKNELCKGFDQRTVTRVLLQAGWLKPASDGKLEHHHHHH | not soluble
9 | MGSDKIHHHHHHMDKGKSVKSTEKSVGMPPKTPKTDNNAHVDNEFLILQVNDAVFPIGSYTHSFGLETYIQQKKVTNKESALEYLKANLSSQFLYTEMLSLKLTYESALQQDLKKILGVEEVIMLSTSPMELRLANQKLGNRFIKTLQAMNELDMGEFFNAYAQKTKDPTHATSYGVFAASLGIELKKALRHYLYAQTSNMVINCVKSVPLSQNDGQKILLSLQSPFNQLIEKTLELDESHLCTASVQNDIKAMQHESLYSRLYMS | not soluble
10 | MGSDKIHHHHHHMPETIKNISKKDAILKAALQLFSHRSFDGTTIPEIARVANVGAGTIYRYFISKEDLVNELFVRVLDDFTEHLQVGLHGQMDTRTRFHHLFNNAWNYVMNNVEAFLFINLNDEATYLNDRSRKSFSRMWDYIAEMVEQGADKGELIKLDPKFVASLVYGPLIPISKRFNNDNRQASQALAKALEEATWRAISTD | not soluble
11 | MVKETKLYDLLGVSPSANEQELKKGYRKAALKYHPDKPTGDTEKFKEISEAFEILNDPQKREIYDQYGLEAARSGGPSFGPGGPGGAGGAGGFPGGAGGFSGGHAFSNEDAFNIFSQFFGGSSPFGGADDSGFSFSSYPSGGGAGMGGMPGGMGGMHGGMGGMPGGFRSASSSPTYPEEETVQVNLPVSLEDLFVGKKKSFKIGRKGPHGASEKTQIDIQLKPGWKAGTKITYKNQGDYNPQTGRRKTLQFVIQEKSHPNFKRDGDDLIYTLPLSFKESLLGFSKTIQTIDGRTLPLSRVQPVQPSQTSTYPGQGMPTPKNPSQRGNLIVKYKVDYPISLNDAQKRAIDENF | not soluble
12 | MGSDKIHHHHHHKKVIKTMMIAGQDGSHYWRGACEAMKQILENSGMFKVDFVFTPDFGGDINTFKPDFAKYNLVVVNYGGEVWPEPVQKAFENYVADGGGVVIIHSSVVPMAGWKAYNEIIGMGAWEGRNEKDGPYLYWKEGKYVYDYTPGYAGYHGLQHETILEHRAPEHPILKGLPIRWKHFKDEIYTRLRGPVRNVEILATAYERGRHEPLMWTVKWGKGRVFVDLLGHCGNDPNMIYSMECTGFQVTLLRGAEWAATGEVTQEAPRDFPLEDTCTLRPEFKAPFHATN | not soluble
13 | IVMADWLKIRGTLKSWTKLWCVLKPGVLLIYKTQKNGQWVGTVLLNACEIIERPSKKDGFCFKLFHPLEQSIWAVKGPKGEAVGSITQPLPSSYLIIRATSESDGRCWMDALELALK | soluble
14 | RKKPVSQSLEFPTRYSPYRPYRCVHQGCFAAFTIQQNLILHYQAVHKSDLPAFSAEVEEE | soluble
15 | MTRAILFDLDGTLVDTRAASWQLFSETNLAFALGIDSREAFFRAFEGNFFESLAKLCPDPQRAAAVKAHFMELLRTRYHPALIPGMVDVVRALAPHSTLAVISTNGIEAIRRILVGADLANCFSHVFSGDVEPRKAVSIRRFLGDHRYAVHRACSPAYHDGEASHASLQAQDVVLVTDTVGDVREAREAGIRAIGVTWGMHSERQLLDAGAERVALWPQELVAWLRDADAPATSCGCSSGSADSCALPPAPAPAVRAAAAPPTGDPVREVARHRRERQLHTRLQAAAATAPAAPGASMASAASGPSARTELMSSLQRILREGDH | not soluble
16 | MEYAADGDTVFLESIENMEVTRLDSAIIRNGTFSFKGRQDSTVARYLSCMTATDVFSIPFFLENGHIEVKMKSGNESVTGTPTNDIYQEIRSKMAEIMNKMNEIYSDSTLTEELAEEKMDQMEREYTIAQKEAVKKNIANPVGVFLFKEQYFENSLAENQALFRQIPPKYLNDPVLMGMQKQMESQEKTDMNTPFT | not soluble
17 | MGSDKIHHHHHHMETQDYAFQPGLTVGELLKSSQKDWQAAINHRFVKELFAGTIENKVLKDYLIQDYHFFDAFLSMLGACVAHADKLESKLRFAKQLGFLEADEDGYFQKAFKELKVAENDYLEVTLHPVTKAFQDLMYSAVASSDYAHLLVMLVIAEGLYLDWGSKDLALPEVYIHSEWINLHRGPFFAEWVQFLVDELNRVGKNREDLTELQQRWNQAVALELAFFDIGYDV | soluble
18 | GPGSMLASTPGSNFGGAVASSNNNGGQQPQRRMHPIRPLTIKQMLEAQSVGGGVLVVDGREVTQATVVGRVVGYENANMASGGGAITAKHFGYRITDNTGMLVVRQWIDADRMQEPLAINTHVRASGTVNVWQQTPIVTGTVVSMADSNEMNYHMLDAILTHFRLTQGNKRAPSSGVSIQNTASAVGMHNMLPGGDNKVLLTDLLVSFIKQHGSSGAGMSMDELTTSAQRYGFTHGDVRTAMRTLAAEGKVYQTHDNRFNI | soluble
